From patent US11278600B2, “Human alpha-galactosidase variants” (Codexis, Inc., priority 2014, dated 2022) come the findings set out here.

Common to all, as to type: biochemical
Data set [1] is described as follows: HTP-analysis of yeast culture supernatants, no challenge (MUGal hydrolysis). Conditions: activity of the variant/activity of Rd3BB (SEQ ID NO: 13), yeast culture supernatant. In short, it runs like this: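 Activity read as 4-methylumbelliferyl α-D-galactopyranoside hydrolysis: fluorescence (355/448 nm) after sodium carbonate stop, following 30-180 min at 37° C with 2 mM MUGal stock at pH 4.6–4.8. Enzyme source is unchallenged culture supernatant of INVSc1 yeast expressing GLA variants, grown 66-84 h at 30° C.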

Data set [2] can be described thus: HTP-analysis of supernatants pretreated with acid (MUGal hydrolysis). Conditions: challenge at pH 4.0; activity of the variant/activity of Rd3BB (SEQ ID NO: 13); yeast culture supernatant. In short, it runs like this:
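Yeast INVSc1 supernatant, GLA variants; acid challenge: McIlvaine pH 3.3-4.3, 37° C., 1-3 h. Assay: MUGal in McIlvaine pH 4.8 plus citrate pH 4.3, 37° C., 30-180 min, Na2CO3 stop, Ex 355/Em 448 nm.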

Data set [3] is described as follows: HTP-analysis of supernatants pretreated with base (MUGal hydrolysis). Conditions: challenge at pH 8.2; activity of the variant/activity of Rd3BB (SEQ ID NO: 13); yeast culture supernatant. The gist of the method: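 GLA variants were secreted by transformed INVSc1 yeast grown 66-84 h at 30° C. Supernatants were exposed to neutral-to-basic buffers (pH 7.0-9.7) at 37° C for 1-18 h, then assayed with MUGal in acidic citrate/McIlvaine buffer, with fluorescence read after quenching.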

Data set [4] is described as follows: HTP-analysis of supernatants pretreated with bovine serum (MUGal hydrolysis). Conditions: activity of the variant/activity of Rd3BB (SEQ ID NO: 13), yeast culture supernatant. The gist of the method: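 Yeast INVSc1 culture supernatants containing secreted GLA variants were mixed with bovine serum (20:80) and held 1 h at 37° C. Serum-treated samples then reacted with MUGal (4 mM stock) in citrate/McIlvaine buffer (pH 4.3/4.8) for 180 min at 37° C., were quenched with sodium carbonate, and read by fluorescence (Ex 355, Em 448 nm).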

Changes are numbered by the printed parent chain.

B1: 347 (protein)
chain: LDNGLARTPTMGWLHWERFMCNLDCQEEPDSCISEKLFMEMAERMVSEGWKDAGYEYLCIDDCWMAPQRDSEGRLQADPQRFPHGIRQLANYVHSIGLKLGIYADVGNKTCAGFPGSFGYYDIDAQTFADWGVDLLKFDGCYCDSLENLADGYKHMSLALNRTGRSIVYSCEWPLYMWPFQKPNYTEIRQYCNHWRNFADIDDSWASIKSILDWTSFNQERIVDVAGPGGWNDPDMLVIGNFGLSWNQQVTQMALWAIMAAPLFMSNDLRHISPQAKALLQDKDVIAINQDPLGKQGYQLRQGDNFEVWERPLSGLAWAVAIINRQEIGGPRSYTIPVASLGKGVACNPACFITQLLPVKRKLGFYNWSSRLKSHINPTGTVLLQLENTMQMSLKDLL
modifications: Synthetic Polypeptide sequence of Variant No. 347 of mature Human GLA
With B1, in data set [1], the “Relative Activity of GLA Variants After No Challenge (NC)” value is reported as “− (− = <0.5 relative activity to Rd3BB (SEQ ID NO: 13))”. Also, the “Relative Activity of GLA Variants After Challenge at pH 4.0” value (shortened to “Relative Activity … at pH 4.0”) in data set [2] is on record as “− (− = <0.5 relative activity to Rd3BB (SEQ ID NO: 13))”. Besides, in data set [3], the “Relative Activity of GLA Variants After Challenge at pH 8.2” value (“Relative Activity … at pH 8.2” below) was “− (− = <0.5 relative activity to Rd3BB (SEQ ID NO: 13))”. The “Relative Activity of GLA Variants After Challenge with Serum” value (from here on “Relative Activity … with Serum”) in data set [4] is listed as “− (− = <0.5 relative activity to Rd3BB (SEQ ID NO: 13))”.

B2: 351 (protein)
chain: B1 chain with I96K, L100F, I208V, R221T, Q302K, P337A, S369T, I376V
modifications: Synthetic Polypeptide sequence of Variant No. 351 of mature Human GLA
With B2, the “Relative Activity of GLA Variants After No Challenge (NC)” value in data set [1] was “+ (+ = 0.5 to 1.5 relative activity over Rd3BB (SEQ ID NO: 13))”. Also, in data set [2], the “Relative Activity … at pH 4.0” value is “+ (+ = 0.5 to 1.5 relative activity over Rd3BB (SEQ ID NO: 13))”. Moreover, the “Relative Activity … at pH 8.2” value in data set [3] is “++ (++ = >1.5 to 2.5 relative activity over Rd3BB (SEQ ID NO: 13))”. For the same molecule, in data set [4], the “Relative Activity … with Serum” value is “+ (+ = 0.5 to 1.5 relative activity over Rd3BB (SEQ ID NO: 13))”.

B3: 358 (protein)
chain: B1 chain with I96K, L100F, R221T, N247D, Q302K, P337A, S369T
modifications: Synthetic Polypeptide sequence of Variant No. 358 of mature Human GLA
Turning to B3, the “Relative Activity of GLA Variants After No Challenge (NC)” value in data set [1] is given as “+ (+ = 0.5 to 1.5 relative activity over Rd3BB (SEQ ID NO: 13))”. Besides, in data set [2], the “Relative Activity … at pH 4.0” value is “+ (+ = 0.5 to 1.5 relative activity over Rd3BB (SEQ ID NO: 13))”. The “Relative Activity … at pH 8.2” value in data set [3] is “++ (++ = >1.5 to 2.5 relative activity over Rd3BB (SEQ ID NO: 13))”. For the same molecule, the “Relative Activity … with Serum” value in data set [4] is “+ (+ = 0.5 to 1.5 relative activity over Rd3BB (SEQ ID NO: 13))”.

B4: 357 (protein)
chain: B1 chain with I96K, L100F, R221T, N247D, Q302K, I322V, P337A, S369T, I376V
modifications: Synthetic Polypeptide sequence of Variant No. 357 of mature Human GLA
Turning to B4, the “Relative Activity of GLA Variants After No Challenge (NC)” value in data set [1] is reported as “+ (+ = 0.5 to 1.5 relative activity over Rd3BB (SEQ ID NO: 13))”. Moreover, the “Relative Activity … at pH 4.0” value in data set [2] is “++ (++ = >1.5 to 2.5 relative activity over Rd3BB (SEQ ID NO: 13))”. For the same molecule, the “Relative Activity … at pH 8.2” value in data set [3] was “+++ (+++ = >2.5 relative activity over Rd3BB (SEQ ID NO: 13))”. The “Relative Activity … with Serum” value in data set [4] was “+ (+ = 0.5 to 1.5 relative activity over Rd3BB (SEQ ID NO: 13))”.

B5: 348 (protein)
chain: B1 chain with I96K, L100F, I208V, R221K, P337A, K343G, F365L, S369T
modifications: Synthetic Polypeptide sequence of Variant No. 348 of mature Human GLA
Turning to B5, in data set [1], the “Relative Activity of GLA Variants After No Challenge (NC)” value is given as “+ (+ = 0.5 to 1.5 relative activity over Rd3BB (SEQ ID NO: 13))”. In data set [2], the “Relative Activity … at pH 4.0” value is on record as “+ (+ = 0.5 to 1.5 relative activity over Rd3BB (SEQ ID NO: 13))”. In data set [3], the “Relative Activity … at pH 8.2” value was “+ (+ = 0.5 to 1.5 relative activity over Rd3BB (SEQ ID NO: 13))”. Also, the “Relative Activity … with Serum” value in data set [4] is on record as “+ (+ = 0.5 to 1.5 relative activity over Rd3BB (SEQ ID NO: 13))”.

B6: 349 (protein)
chain: B1 chain with I96K, L100F, I208V, R221T, N247D, P337A, F365L, S369T
modifications: Synthetic Polypeptide sequence of Variant No. 349 of mature Human GLA
Take B6: in data set [1], the “Relative Activity of GLA Variants After No Challenge (NC)” value is “+ (+ = 0.5 to 1.5 relative activity over Rd3BB (SEQ ID NO: 13))”. Moreover, in data set [2], the “Relative Activity … at pH 4.0” value is on record as “+ (+ = 0.5 to 1.5 relative activity over Rd3BB (SEQ ID NO: 13))”. The “Relative Activity … at pH 8.2” value in data set [3] is on record as “++ (++ = >1.5 to 2.5 relative activity over Rd3BB (SEQ ID NO: 13))”. Moreover, the “Relative Activity … with Serum” value in data set [4] was “+ (+ = 0.5 to 1.5 relative activity over Rd3BB (SEQ ID NO: 13))”.

B7: 356 (protein)
chain: B1 chain with I96K, L100F, R221T, N247D, Q302K, P337A, S369T
modifications: Synthetic Polypeptide sequence of Variant No. 356 of mature Human GLA
For B7, the “Relative Activity of GLA Variants After No Challenge (NC)” value in data set [1] is “+ (+ = 0.5 to 1.5 relative activity over Rd3BB (SEQ ID NO: 13))”. Also, the “Relative Activity … at pH 4.0” value in data set [2] was “+ (+ = 0.5 to 1.5 relative activity over Rd3BB (SEQ ID NO: 13))”. Further, in data set [3], the “Relative Activity … at pH 8.2” value is “++ (++ = >1.5 to 2.5 relative activity over Rd3BB (SEQ ID NO: 13))”. Moreover, the “Relative Activity … with Serum” value in data set [4] was “+ (+ = 0.5 to 1.5 relative activity over Rd3BB (SEQ ID NO: 13))”.

B8: 354 (protein)
chain: B1 chain with I96K, L100F, R221T, P337A, F365L, S369T
modifications: Synthetic Polypeptide sequence of Variant No. 354 of mature Human GLA
For B8, the “Relative Activity of GLA Variants After No Challenge (NC)” value in data set [1] was “− (− = <0.5 relative activity to Rd3BB (SEQ ID NO: 13))”. Besides, in data set [2], the “Relative Activity … at pH 4.0” value is “+ (+ = 0.5 to 1.5 relative activity over Rd3BB (SEQ ID NO: 13))”. In addition, the “Relative Activity … at pH 8.2” value in data set [3] is recorded as “+ (+ = 0.5 to 1.5 relative activity over Rd3BB (SEQ ID NO: 13))”. In addition, in data set [4], the “Relative Activity … with Serum” value is “+ (+ = 0.5 to 1.5 relative activity over Rd3BB (SEQ ID NO: 13))”.

B9: 353 (protein)
chain: B1 chain with I96K, L100F, R221T, P337A, F365L, S369T, I376V
modifications: Synthetic Polypeptide sequence of Variant No. 353 of mature Human GLA
As for B9, in data set [1], the “Relative Activity of GLA Variants After No Challenge (NC)” value is “− (− = <0.5 relative activity to Rd3BB (SEQ ID NO: 13))”. In data set [2], the “Relative Activity … at pH 4.0” value is recorded as “− (− = <0.5 relative activity to Rd3BB (SEQ ID NO: 13))”. Besides, the “Relative Activity … at pH 8.2” value in data set [3] is “− (− = <0.5 relative activity to Rd3BB (SEQ ID NO: 13))”. The “Relative Activity … with Serum” value in data set [4] is given as “+ (+ = 0.5 to 1.5 relative activity over Rd3BB (SEQ ID NO: 13))”.

B10: 350 (protein)
chain: B1 chain with I96K, L100F, I208V, R221T, N247D, I322V, P337A, S369T, I376V
modifications: Synthetic Polypeptide sequence of Variant No. 350 of mature Human GLA
As to B10, the “Relative Activity of GLA Variants After No Challenge (NC)” value in data set [1] is “+ (+ = 0.5 to 1.5 relative activity over Rd3BB (SEQ ID NO: 13))”. Also, the “Relative Activity … at pH 4.0” value in data set [2] was “++ (++ = >1.5 to 2.5 relative activity over Rd3BB (SEQ ID NO: 13))”. For the same molecule, the “Relative Activity … at pH 8.2” value in data set [3] is listed as “+++ (+++ = >2.5 relative activity over Rd3BB (SEQ ID NO: 13))”. Besides, the “Relative Activity … with Serum” value in data set [4] is listed as “+ (+ = 0.5 to 1.5 relative activity over Rd3BB (SEQ ID NO: 13))”.

B11: 352 (protein)
chain: B1 chain with I96K, L100F, R221K, Q302K, P337A, S369T, I376V
modifications: Synthetic Polypeptide sequence of Variant No. 352 of mature Human GLA
For B11, the “Relative Activity of GLA Variants After No Challenge (NC)” value in data set [1] is recorded as “+ (+ = 0.5 to 1.5 relative activity over Rd3BB (SEQ ID NO: 13))”. Moreover, in data set [2], the “Relative Activity … at pH 4.0” value is reported as “+ (+ = 0.5 to 1.5 relative activity over Rd3BB (SEQ ID NO: 13))”. For the same molecule, in data set [3], the “Relative Activity … at pH 8.2” value is “+ (+ = 0.5 to 1.5 relative activity over Rd3BB (SEQ ID NO: 13))”. Further, the “Relative Activity … with Serum” value in data set [4] is “+ (+ = 0.5 to 1.5 relative activity over Rd3BB (SEQ ID NO: 13))”.

B12: 355 (protein)
chain: B1 chain with I96K, L100F, R221T, N247D, P337A, K343D, S369T, I376V
modifications: Synthetic Polypeptide sequence of Variant No. 355 of mature Human GLA
Turning to B12, the “Relative Activity of GLA Variants After No Challenge (NC)” value in data set [1] is “+ (+ = 0.5 to 1.5 relative activity over Rd3BB (SEQ ID NO: 13))”. In addition, the “Relative Activity … at pH 4.0” value in data set [2] is “++ (++ = >1.5 to 2.5 relative activity over Rd3BB (SEQ ID NO: 13))”. Besides, the “Relative Activity … at pH 8.2” value in data set [3] is “++ (++ = >1.5 to 2.5 relative activity over Rd3BB (SEQ ID NO: 13))”. In addition, the “Relative Activity … with Serum” value in data set [4] is “+ (+ = 0.5 to 1.5 relative activity over Rd3BB (SEQ ID NO: 13))”.
